# According to patent CN115716874A (SHENZHEN ZHUORUN BIOTECHNOLOGY CO LTD, dated 2023):
# T1: AFP-L3与凝集素复合物 (Lens culinaris, UniProt P02870 31-210; P02870 218-269, limits assumed)
# T1 construct: Non-covalent complex of recombinant AFP (AFP-L3 glycoform) with lentil lectin, mass ratio AFP-L3:lectin 1:5; immobilised on a CM5 chip for SPR; Native LCA consists of processed alpha and beta chains; also called AFP-L3与LCA复合物; AFP-L3-LCA复合物
# T1 sequence 1: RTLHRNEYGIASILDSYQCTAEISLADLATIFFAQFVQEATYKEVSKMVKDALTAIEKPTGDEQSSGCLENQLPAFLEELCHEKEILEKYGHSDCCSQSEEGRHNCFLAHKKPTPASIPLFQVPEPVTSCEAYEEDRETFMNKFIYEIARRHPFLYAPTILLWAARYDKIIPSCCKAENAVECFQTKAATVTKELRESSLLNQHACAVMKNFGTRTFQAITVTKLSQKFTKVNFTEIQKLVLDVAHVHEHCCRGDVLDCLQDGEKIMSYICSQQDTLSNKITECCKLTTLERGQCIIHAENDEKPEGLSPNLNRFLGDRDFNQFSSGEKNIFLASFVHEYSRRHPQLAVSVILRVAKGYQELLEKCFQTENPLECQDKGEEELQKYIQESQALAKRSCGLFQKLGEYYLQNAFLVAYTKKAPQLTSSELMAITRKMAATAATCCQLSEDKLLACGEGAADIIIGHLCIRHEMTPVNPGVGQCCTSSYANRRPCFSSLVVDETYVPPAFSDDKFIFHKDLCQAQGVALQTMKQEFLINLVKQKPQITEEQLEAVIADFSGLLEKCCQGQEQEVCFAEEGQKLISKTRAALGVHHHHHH
# T1 sequence 2: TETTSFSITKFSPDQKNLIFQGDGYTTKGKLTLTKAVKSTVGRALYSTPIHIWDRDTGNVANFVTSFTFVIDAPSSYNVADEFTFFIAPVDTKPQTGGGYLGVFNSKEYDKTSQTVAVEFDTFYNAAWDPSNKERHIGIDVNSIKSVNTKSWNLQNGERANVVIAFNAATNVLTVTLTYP
# T1 sequence 3: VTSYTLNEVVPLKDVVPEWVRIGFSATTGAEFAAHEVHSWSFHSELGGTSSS
# B1: Ab-03 (antibody, mouse IgG1, kappa, V domains shown)
# VH: QVQLQQSGPEVVRPGVSVKISCKGSGYTFTDYAMQWVKQSHAKSLEWIGVISTYNGNTNYNQKFKGKATMTVDKSSSTAYMELARLTSEDSAIYYCARSLYYGSSPYAMDYWGQGTSVTVSS
# VL: DIVMSQSPSSLAVSAGEKVTMSCKSSQSLLNSRTRKNYLAWYQQKPGQSPKLLIYWASTRESGVPDRFTGSGSGTDFTLTISSVQAEDLAVYYCKQSYNLFTFGSGTKLEIKR
# notes: Mouse hybridoma antibody from ascites, Protein A purified; also called 针对AFP-L3与凝集素复合物的单克隆抗体; Ab-03抗体株
# Target: T1, AFP-L3与凝集素复合物
# Test: SPR, Biacore T200, complex immobilised on CM5 chip, antibody as analyte
binder,measurement,value
B1,Kd,2.66 nM
